Assay results as given in patent US20250176833A1.

What was measured:
[1] = biological target: Fc receptors on HL-60 cells; assay: flow cytometry, titration of IRDye680RD-labeled protein on HL-60 cells, non-linear fit of normalized MFI
[2] = biological target: Fc receptors on Mv4-11 cells; assay: flow cytometry, titration of IRDye680RD-labeled protein on Mv4-11 cells, non-linear fit of normalized MFI
[3] = biological target: Fc receptors on monocytes of human peripheral blood; assay: flow cytometry on human peripheral blood with immune panel, monocyte gate (CD14 vs Fc-680)
[4] = biological target: Fc receptors on granulocytes of human peripheral blood; assay: flow cytometry on human peripheral blood with immune panel, granulocyte gate (CD16 vs Fc-680)

Kd [1] [nM] | Kd [2] [nM] | percent of cells bound [3] [%] | percent of cells bound [4] [%] | Substance
5 | 1.7 | – | – | control IgG, labeled with IRDye680RD (antibody)
2.1 | 1.5 | – | – | control scFv-Fc, labeled with IRDye680RD (Fc fusion)
3.6 | 0.4 | 25 | 33 | human IgG1 Fc domain (hinge, CH2 and CH3; expressed with IL2 signal sequence), labeled with IRDye680RD (from UniProt P0DOX5 218-449)
